Test [1] concerns the target H. sapiens nucleosome core particle (NCP) (human). Briefly: native gel or EMSA. A general note: A gel shift assay detects complexes by their altered migration in electrophoresis.
The target in test [2] is Kaposi's Sarcoma Herpesvirus Latency Associated Nuclear Antigen (LANA) peptide (Kaposi's Sarcoma Herpesvirus). Briefly: fluorescence polarisation.

The source of these data is publication doi:10.1101/2023.04.17.536592.

Chain of Kaposi's Sarcoma Herpesvirus Latency Associated Nuclear Antigen (LANA) peptide (Kaposi's Sarcoma Herpesvirus) (Q9QR71 4-23): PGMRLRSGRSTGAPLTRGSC

For “GST-His-TEV-tagged PFV GAG (from UniProt P14349 535-550) (peptide)”, in test [1], the Kd (commonly the free concentration of one partner at which half of the binding sites on the other are occupied at equilibrium, for simple one-to-one binding) was 3.5 µM.
“H. sapiens nucleosome core particle (NCP) (complex)” had a Kd in test [2] of 2.38 µM.
